This series deals with hnRNP A1 (UniProt P09651 1-251+304-372, internal_change). Nature of the series: MST; 150 mM KCl; MST: 100 nM RED-labelled hnRNP A1, oligonucleotide titrated, 10 min incubation, working buffer with 150 mM KCl (40 mM HEPES-KOH pH 7.0 stated for the other assays); Hill model; temperature not stated. The following applies: tags: RED dye label (MST); parallel G4 loop on short duplex stem GCUGC/GCAGC, 5' single-stranded UCAGUU.
Sequence of hnRNP A1 (P09651 other isoform, or with tags, fused parts or gaps): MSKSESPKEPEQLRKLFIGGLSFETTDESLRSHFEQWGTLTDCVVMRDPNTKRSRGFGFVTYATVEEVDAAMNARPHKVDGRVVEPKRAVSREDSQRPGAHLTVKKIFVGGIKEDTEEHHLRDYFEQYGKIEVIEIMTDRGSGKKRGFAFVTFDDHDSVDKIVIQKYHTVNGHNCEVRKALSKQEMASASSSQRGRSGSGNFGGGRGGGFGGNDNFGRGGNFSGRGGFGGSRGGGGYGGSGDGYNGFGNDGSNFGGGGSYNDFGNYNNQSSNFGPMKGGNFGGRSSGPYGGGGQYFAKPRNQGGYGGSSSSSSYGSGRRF

The term Kd denotes the free concentration of one partner at which half of the binding sites on the other are occupied at equilibrium, for simple one-to-one binding. For UCAGUUGCUGCGGGUGGGUGGGUGGGGCAGC (structured_RNA) [chap-RNA], the Kd is 6 ± 1 µM.

These data come from paper PMC12562432, “G4 Oligonucleotide-Based Chaperones of Heterogeneous Nuclear Ribonucleoprotein A1”.
